Results: a protein production outcome set (Wang et al. 2014)

Assay: label from the status in PepcDB records

MFQAIQQKLLLMPSGKKNLLSLGMKTAITRVFSALFAFLLTLIVSRTTDASTSGQFFFLFNLVSLTAIISQRGFDVALVRFNAIAFSNGDIQQQSDNYWTALTRSITFCFMAAVTLFVGFYLFPNQLNQTNSPIVAITLALMCVPFLVLGQTNSRVLQASKMVVPSLFALQLGVSVLMVLFIMGLSTLHLQNINSLMTALLLASLIVSIASTTKWFSSGQYQKPTPTTNIELISSAKQVWIGSIFTNILQWGSIVIAGFFISTTELGLLAAAQRTSLLIGFVLITINFVVAPMFASLFKEGKLDKLRNLSRWACRANIGAALLPVLVCTLFPEFVMQLFGDEFLAAAPLLVVLSLGQLVNIATGSVGFLLLMSGHERTMKYITICSGTISIALLVFLSQSYGVLGAAWAMAIGMAIQNLAALYFVKRYLGFFPVG
protein production: failed

MFQALIDVVLPVFLVIGAGYCTTFAGYFKPEHIDGVMRFTQGFAIPCLLFRAIANLDLNAGFDPALLASFYMAAFLCFTAGLLGARLLFNRDWEDSVAIGFCCLFSNSVLLGLAITERAYGPENLVGNYAIIAIHSPFCYALGITTMEVIRNRGRGGRKMVTSVLNAMFRNVLILGIALGFIVNLSGISLPQIADDALSLIIRAALPGALFALGGVLVQYRPEGDTRVIVYICAISLLLHPGLVWLFGSALALPQDLFRSGVLNAAMAPGFNAYIFANIYGRAKRVAASSVLVATAASILTVWMWLMLLG
protein production: failed

MFQISFMSKQLQDLIDRELMNASSLVKKGKYEKALEKLNKAERLAEKAKNSELFCRVLLHKGEILDSMEKSREALLQYEKALEISLRFFMSDPQDSSSQRCLYNSIDLMENILNKIDDVSVAEKSYERTNKYFGKVIGTYEKLIAKYPENHYYLINYIITVKNLRGYLLNVGKSEKQIQLINSTLETFKEILNIQPENPEIFEKLDEFVKDLGEEFLDDELFENAKKIYEHLQGIYRGLLENYPDNELVLHYLIVSYGYFGNLYSRQRYLDRIEETYRPALSIVEDNLRKNPENTAFLENLGKIHEKIGVTYSEAKDQEKANSYYEKALANFVNLKGKASEDPDYQAELGKIFANLGERFETINRIENAAKSYLHKIEIYDSLFEEDPEDEDVKMDNIDTLMHIGNLYAEAGYTEPAKKYYEKAIEGYERLLSENPESTDFEIGISDILTALGDMYAKVGEEETEPEDAELETAREYYEKALKLNEKEFERYPDDLTCQDELIRTLGKLGDSFAVQDRYEDVIPFYRRIVEIKEQVVRDDPRRWLAVNSLTNFLYQLGSYYGKIEEVELERKQYSKAAELYSRALHDKNLQHQIKEVLAVEVQSHGTALLKSGKYNAAKEALDLALEFFENLYEEDPEDEENYPFICEALFQNGNLQRALENFEEAAKSFDSLLPIVEKLLESNPESPEARENAGVTYTNVGEVYSLNGEYEKSKQAFERALTINAVLLEEEPDNSLYKINQAQTFEKYAKLLSKLGRSEEAEDYSTKSEEIYRKLAEEDSDEGDINE
protein production: failed

MFRAMHLSLLGCLLGTSGCHGLPPAPPAPSAAVGNYGEVIDYLQRHIRREMERQDVPGLALALVDDQQLVWARGFGYADRQHRINASEHTAFHAGDLSKLLIASATLQLAERGQLSLDAPLQDTLREFYVRSRFHADQSEADRAITFRRLLSHQSGLPGEHLPPLFGERPNSLGQLPAKVSGVWLSNPPGTQVAHSNLGYELVGAAIERNTGKHFEQHMREHLLDPLQMTRSSFARNALPQAQRAHGYSGGGRPGSASDLPVNDLWSSPVDLSRFVRMLFANGRHKERQLLRKHSVEEMFRQQNAGNALDFDCQVGLAWFLSPCGSAPLEGGIRHYEYASATPGFSAHLILLPEQRLAAIVMSNADDSGSLTASLARQAASLMLQVKQGARRPAVQPTPARAPALEVPSPEDRRQLYGRYATRQGQIRLYERRGRLYADFGEQRVELLRDTSGWLQMRKRLLGFWPVGVDSAGQLQLDVVSYGQRRILVSRRHDQTAYLGERIEPTSLPQAWTEAVGTYRVASTGRHSYLNGLSIRIEDGFLLVRGQAGGTRSGEFILQPIDSAHAVLAGSGQGLGDTFSRDFDGLNALGYRFAQQDTKARPWLQRKESP
protein production: failed

MFRKVLFPTDFSEGAYRAVEVFEKRNKMEVGEVILLHVIDEGTLEELMDGYSFFYDNAEIELKDIKEKLKEEASRKLQEKAEEVKRAFRAKNVRTIIRFGIPWDEIVKVAEEENVSLIILPSRGKLSLSHEFLGSTVMRVLRKTKKPVLIIKEVDENELAKTKGTSG
protein production: not failed

MFRLEDFNFHNKTVFLRVDLNSPMKDGKIISDARFKAVLPTIRYLIESGAKVVIGTHQGKPYSEDYTTTEEHARVLSELLDQHVEYIEDIFGRYAREKIKELKSGEVAILENLRFSAEEVKNKPIEECEKTFLVKKLSKVIDYVVNDAFATAHRSQPSLVGFARIKPMIMGFLMEKEIEALMRAYYSKDSPKIYVLGGAKVEDSLKVVENVLRRERADLVLTGGLVANVFTLAKGFDLGRKNVEFMKKKGLLDYVKHAEEILDEFYPYIRTPVDFAVDYKGERVEIDLLSENRGLLHQYQIMDIGKRTAEKYREILMKARIIVANGPMGVFEREEFAIGTVEVFKAIADSPAFSVLGGGHSIASIQKYGITGITHISTGGGAMLSFFAGEELPVLRALQISYEKFKEVVK
protein production: not failed

MFRSIKVASIVQIVFAVCAVLLALTVFEYKKALNTFTNDLNLTVSNTLTRLQVNLPKPLWDFDLETVKSAISAELKTPEISSIKITDTTGKAILYLTLDQATDDKGLRKTIAVENEGALAELASVSGELEFVEYGKKNPLGSIEIRYSDEFMHQQLAEYVSFNLLKVLILAILIPCMLFIILNFSVLKPLNELGDKTRTTIQWGCRPHPSVTRS
protein production: failed

MFRTSGTKTIVFHCHPRYTMIVCVMEEFCRKKVDGNENNSYLTVCNRKLDQERKEIVMNEKQRLEQTGQIQTASHPADRKSDLERLKAKTTKDYEKYFTSVFLPPNLKEAKKRGKEEVQYVKDFTIPDEFRGMGRGRKFYIRTYGCQMNEHDTEVMAGIFMALGYEPTDRPEDANVILLNTCAIRENAENKVFGELGYLKPLKTTNPDLLLGVCGCMSQEEAVVNKILKQYQYVDLIFGTHNIHRLPYILHEAYMSKEMVVEVWSKEGDVVENLPKVRKGNIKAWVNIMYGCDKFCTYCIVPYTRGKERSRRPEDIIQEVRQLAAQGYKEITLLGQNVNAYGKDFNDIQYGLGDLMDELRKIDIARIRFTTSHPRDFDDRLIEVLAKRGNLVEHIHLPVQSGSTEILKMMGRKYTREEYLELVRKIKAAIPDVALTTDIIVGFPNETDEQFEETLSLYREVEFDSAYTFIYSPREGTPAAKMNDNVPMEVKKERLQRLNALVQEIAAKKMKQYEGQVVEVLVEGESKTNPDVLAGYTRKNKLVHFVGPKSLIGQLVNVRITQAKTWTLTGELANEAIEVN
protein production: failed

MFSLKMRASSNGNHVSGAERLVKEEQIEEISSELIKRAMNHENGVPDFINLKVEKVTENINYIEHLKIKTINSNSKETSREFAINILKKELENYFLKNGKDTKKIDELIDSAFKIIDAGNMRGAAILDLDGNRLEKSSDRGIRVRNIDTAEELSKKILKDGSLTERTVDAIAIATKVVNCDIIAELCTSDNFSYTTGYVATKDGYFRILNLKDSGQVGGRVFFAESSDIDELYDKLENMPVIVY
protein production: failed

MFSSSYSNLPPLPHRLFLLLTVIWAGSLWTIGYLVAPTLFSVLPSRETAGMIAGHLFRYEAILGMTVGVLQLVLCNVLIRRGAERYRSLRWIVLTMLVCVLAGYFGVQPFMEGLKVKAQALNLGVSESPYKAEFGMLHGVSSVIYLVQSVLALVLVWRASAPR
protein production: failed

MFTFISIMAVGVLIGYPLRHKSQVRKITPLIHIVVCLLLFLLGLSIGLNRLIIDNLGYFCGQAAVISSLSILGSMMASLAVYHIFF
protein production: failed

MFTMVQKLWLTVVCAVFVTVSFLYFVSLYSYEKLYVDNLKDSLVMEGKRLSAQYDKREGISIFEEKVRAFDQISSSDVLFVSNPRDLSACLPFDVHHHSLISEGDRQALLDGKTVTKIGYEEHFDRNIMGVVIPVLENKKLVGIVYSYIPLKSIKDLIYDMGLILAPLALAITLLTIWIGRKIIIAITKPLSQMERVANHLATGDFSERITISSEDEIGRLGKAFNKMANSLETEDVKRKEFLANVSHELRTPLSYIKGYSEAILDGVAKGPQQEKVTQLIHKEADRMQRLVHDLLDLAQLEGEHFPLKKQPIVFSQLIEDVLDTYEIKFIEKKIRISTNLNPEIIVMIDEDRMQQVLHNVLDNAIRYTNQNGDIIVTLRQIDDYCELNIKDTGIGIDTEHLENLGERFYRVDKARSRQHGGTGLGLAIVRQIVHIHDGQWRIESEKGNGTTVSIKLKVQDEESMF
protein production: failed

MFTPGNVLSWATFFPVIGSALIVVLLAAKFFLRLDKKLVDDGSRWIALVTSALSFAAAIAAWRMYDPSATGVQLVQHFTWIRAFNIEFYFGVDGISISMVLLSGLISFIATIASMPWWSGKKDAEMAGMVDDGHEDPHHPKHFSVRMVPGYMAMLLLLQTGMMGTFVALDMFLFYVFWEIMLLPMYFLIGIWGGPRKEYAAIKFFLYTLAGSVLMLLAIIGIYYNSAPAQLADGSWSSGHTFNLIELAKQGAAGQFRNAAPILGFSFAKIVFIGLFIGFAIKIPMFPFHTWLPDAHVEAPTPISVILAGVLLKMGIYGILRFNYGILPDATAWAAGAIAVFGVINIIYAAFVCLAQKDLKKLIAYSSVSHMGFSLLGMAAMTPQGISGAVLNLFTHGIISPMLFLIVGVIYDRAHHREIEKFGGLAQELPEYSAIMGLAFFASLGLPGLAGFISEFTVFSGAFPVFTTYTIISATSVVLTAAYYLWAIHRMFLGKLNPVYKGYPDLNWRERMSLYPLAVICIYLGFYPQAILGVINPALHALIQNIKPL
protein production: failed

MFTYLLITIFGIGLLIWAFWYDKNMFKPEKKKNGKMTKPLHTRWYFWVLVVFSIVGGIGNMLGLGADDDDSDNNSAQTVQTSKKAKQSKAENHSKAKKSGTKKSKEISDEEKEAAALLLLRKNFKGKAKVWYDSDNKAFMIQPTGTEFKEELLDIIATQDTSDWKDLTDSMDSLSRSLYKNLQLADFVSIVNPDNPDKVLYSSLNGHSEYDFLKDDE
protein production: failed

MFVGVVVIVAYGNLGQRLAYTVRSDEVVATAGFVLVGFVAGVAGQVLGTRIQAAVGEGAAVVDLPLVLFLAASGAFVAALLRSVLFERDDPLVMLTVGLLLWLFFELDPSVTARRVVIALAVTVLLGYLSYALDTASLPGMLTGVLLSFLTIVLGGFGWFAMLITFFGLGGLSTKYRYDEKLDRGIAEENEGARGSGNVLANSIVALFAVVAAAASPSHIAVDPLLFFYAFAGAVAAAMTDTFSSEFGGLYDNPRLITTLRPVEPGTDGGVTWQGVAAGAAGAGIIAGIAALTQDISTVGSGVILLCGLVGMTVDSLLGATVEGSVVGNQGVNMLATLAAALTGAGVVLTAGLL
protein production: failed

MFVHTKTKKKRKWQRKVFLLLLLFLLPIVSVLAFIVLFIGGGTAESHDVEATTGGVKLSAKQFADKTKLGISEEEAKNALAFADRLMSRHHFTAQATAGVLAVGFRESGFDVKAVNNSGGVAGFFQWSGWGSSVNGDRWKVASKRELTLEVEVDLMSTELDGRYADVVKKVGSATDEKQAAKDWSQYYEGVAVSDGQTKADKIESWATTICEALKSGGTNYAKVNNTGTSSTAIPQGWENISAFDGHAYEGSENYPQGQCTWYVYNRAKQLGVSFSPYMGNGGQWYQVQGYHSSHTPKAHTALSFVNGQAGSDPTYGHVAFVEAVKDDGSILISEMNVYGQPAMTVAYRTFDAETAKQFWYVEGK
protein production: failed
